In data set [1] the target is T1, CmlR (Streptomyces venezuelae ATCC 10712) (UniProt F2RB72).
T1 sequence: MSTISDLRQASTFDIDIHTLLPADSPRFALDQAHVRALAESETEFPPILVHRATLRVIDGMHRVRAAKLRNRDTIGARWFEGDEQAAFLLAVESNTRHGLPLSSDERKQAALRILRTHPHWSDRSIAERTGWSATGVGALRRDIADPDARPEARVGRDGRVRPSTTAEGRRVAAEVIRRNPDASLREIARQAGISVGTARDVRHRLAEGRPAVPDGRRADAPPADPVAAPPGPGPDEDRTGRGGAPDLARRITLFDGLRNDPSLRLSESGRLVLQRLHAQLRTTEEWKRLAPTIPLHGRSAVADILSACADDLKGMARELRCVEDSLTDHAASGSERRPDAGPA
The data set can be described thus: EMSA. Conditions: 10 mM Tris pH 7.8, 5 mM MgCl2, 60 mM KCl, 10% glycerol; Lsr2 (EMSA, AFM): room temperature 10 min then ice 30 min; CmlR: 30 C 30 min.

The target of data set [2] is T2, Lsr2 (Streptomyces venezuelae ATCC 10712) (UniProt F2R951).
T2 sequence: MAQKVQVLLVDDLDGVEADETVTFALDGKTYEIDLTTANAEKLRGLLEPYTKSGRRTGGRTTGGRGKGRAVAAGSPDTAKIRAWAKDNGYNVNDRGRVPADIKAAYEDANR
The data set can be described thus: EMSA. Conditions: 10 mM Tris pH 7.8, 5 mM MgCl2, 60 mM KCl, 10% glycerol; Lsr2 (EMSA, AFM): room temperature 10 min then ice 30 min; CmlR: 30 C 30 min.

On to “GGCCCACCCCTTCCTTCACTTCCCTTTGCGGGCTCTTCCCTTTGCGGGCTCGGCCCTTCCCGGGTCCGGCGTCTCGAAGTCTGTGGATATCGGTCGCGGGCCGCAAGGGTGTGCAGATCACCACCCCGTGCAACTGAAGGAACCGGACAGTTGAACAGGGCGGTGAACCGCGCGGACTGAACGACCTTGCGTGGGCCGGGGGCGTATGACATAAAAATCCAGGCGTCGGCCCGGAGCACGACTCGGCCGGCGACGCGATCTGTTCTGTCT (double strand) [sven0924-0925 promoter probe]”, for which the binding entry in data set [1] is “binds”. On the same count and under the same terms, for “GGTGGATTCCGTAGTCATGGCGCGGACCTTACAGCGATGATCCACGATCATCCGACCGGCTTGTCTATTTTCAGCCAGTCCGACTCGCACCCGGCTCGAACGAAGCCGTGGCCCGAGCGTCACGGAAAGCGTGACACATGTCAGCGCGGCGCCTTTTTCCCTGTTCCGCCGCAATTCCCCGGCACATGATTACGGCCGGAAGCGAAACACATCACCAGGACGTTGTTTCTCGAATTCTCG (double strand) [sven5133 promoter probe]” the value was “no binding”. With “GGAGACGTTCAGGATCGCGGAACTCTGCTCAGTGGATTTCCGCAGCAGTTTGACCGCTTCCCGGCAGCAGTTCAGCACGGCGAAGAAATTGATGTCGAATATCTTCCGGGAAACCTCGTCCGGGGTCGTCATGAAATGGTTCATCGACGA (double strand) [sven0926 probe]”, the binding entry in data set [2] was “binds”.

Take “GGATTTTCCTGAACGCCGGAGTCGGGTGACCGATAACCGGACACTTTCCGGATTTCGTGTCCGGATTGAGCCCGGTTATACGTCGAATGCCTCAAGT (double strand) [sven0904-0905 probe]”: the binding result in data set [2] is “binds”.
